Assay results from patent US20220096649A1 (TALLAC THERAPEUTICS, published 2022).

Key:
Assay in all cases: SPR, antibody on GLC chip, SIRP as analyte
[1] = target: T1, SIRP-α human v2 (human, UniProt P78324 31-149, limits assumed)
T1 construct: Soluble analyte in SPR
Experimental: (§1) The running buffer was PBS pH 7.4 with 0.01% TWEEN-20 (PBST+). All analytes were used at their nominal concentrations as determined by A280 absorbance and using their molar calculated extinction coefficient. Analytes were injected in a “one-shot” kinetic mode as described (see, e.g., Bravman et al., Anal. Biochem. 2006, 358, 281-288).
(§2) For the method using a GLC chip, the analytes were injected and flowed over anti-SIRPα antibodies immobilized (˜1000 RUs) on GLC chips using Proteon Amine Coupling Kit. For the immobilization step, the GLC chip was activated with EDAC/Sulpho-NHS 1:1 (Biorad) diluted 1/100 for 300 s at 25 μL/min. Anti-SIRPα antibodies were diluted to 80 nM concentration in 10 mM sodium acetate buffer pH 4.5 and immobilized to the chip at 30 μL/min for 50 s. Chip was inactivated with ethanolamine for 300 s at 25 μL/min. The analytes (e.g., SIRP-α from different species, SIRP-β, SIRP-γ) were injected in a “one-shot” kinetic mode at nominal concentrations of 100, 33, 11, 3.7, 1.2, and 0 nM. Association times were monitored for 90 s at 100 uL/min, and dissociation times were monitored for 1200 s. The surfaces were regenerated with a 2:1 v/v blend of Pierce IgG elution buffer/4M NaCl.
(§3) Biosensor data were double-referenced by subtracting the interspot data (containing no immobilized protein) from the reaction spot data (immobilized protein) and then subtracting the response of a buffer “blank” analyte injection from that of an analyte injection. Double-referenced data were fit globally to a simple Langmuir model and the KD value was calculated from the ratio of the apparent kinetic rate constants (KD=kd/kₐ).

[2] = target: T2, Human SIRPγ (human, UniProt Q9P1W8 29-147, limits assumed)
T2 construct: Soluble analyte in SPR
T2 sequence (Q9P1W8 29-147 limits assumed): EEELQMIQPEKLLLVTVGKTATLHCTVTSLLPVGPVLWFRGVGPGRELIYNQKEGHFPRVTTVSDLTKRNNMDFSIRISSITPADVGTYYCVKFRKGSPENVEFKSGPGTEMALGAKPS
Experimental: as §1, §2, §3

[3] = target: T3, Human SIRPβ (human, UniProt O00241 30-148)
T3 construct: Soluble analyte in SPR
T3 sequence (O00241 30-148): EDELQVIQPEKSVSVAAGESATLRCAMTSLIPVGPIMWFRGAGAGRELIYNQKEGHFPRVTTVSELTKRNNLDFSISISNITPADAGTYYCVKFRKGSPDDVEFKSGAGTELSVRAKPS
Experimental: as §1, §2, §3

[4] = target: T4, SIRP-α mouse BL6 (mouse (BL6), UniProt P97797 32-150, limits assumed)
T4 construct: Soluble analyte in SPR
T4 sequence (looked up): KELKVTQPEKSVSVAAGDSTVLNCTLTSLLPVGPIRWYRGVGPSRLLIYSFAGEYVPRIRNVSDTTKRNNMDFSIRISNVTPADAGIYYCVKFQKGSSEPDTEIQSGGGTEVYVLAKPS
Experimental: as §1, §2, §3

[5] = target: T5, SIRP-α cynomolgus (cynomolgus, UniProt A0A2K5VYQ9 31-148)
T5 construct: Soluble analyte in SPR; also called cynomologous monkey SIRP-α
T5 sequence: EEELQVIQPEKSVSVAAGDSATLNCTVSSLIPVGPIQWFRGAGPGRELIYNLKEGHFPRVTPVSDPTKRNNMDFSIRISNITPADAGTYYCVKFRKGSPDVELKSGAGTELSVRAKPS
Experimental: as §1, §2, §3

T1 sequence (P78324 other isoform, or with tags, fused parts or gaps limits assumed): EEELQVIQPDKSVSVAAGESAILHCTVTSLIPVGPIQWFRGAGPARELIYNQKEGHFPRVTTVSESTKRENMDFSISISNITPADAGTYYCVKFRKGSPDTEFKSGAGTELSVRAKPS

| Binder | Kd [1] [nM] | Kd [2] [nM] | Kd [3] [nM] | Kd [4] [nM] | Kd [5] [nM] | binding result [4] |
| --- | --- | --- | --- | --- | --- | --- |
| Anti-SIRP-α antibody 136, light chain wt, heavy chain Mut (antibody, V domains shown, Whole antibody; Heavy chain mut = D1E, R13Q, E16R, M34V, E43K, L111Q) VH: EVQLVESGGGVVQPGRSLRLSCAASGFTFSSYDVNWVRQAPGKGLEWVSLISGSGEIIYYADSVKGRFTISRDNSKNTLYLQMNSLRAEDTAVYYCAKENNRYRFFDDWGQGTLVTVSS VL: ETVLTQSPGTLTLSPGERATLTCRASQSVYTYLAWYQEKPGQAPRLLIYGASSRATGIPDRFSGSGSGTEFTLTISSLQSEDFAVYYCQQYYDRPPLTFGGGTKVEIK | 1.7 | 17 | 3.5 | 23 |  |  |
| Anti-SIRP-α antibody 136, light chain Mut, heavy chain Mut (antibody, V domains shown, Whole antibody) VH: EVQLVESGGGVVQPGRSLRLSCAASGFTFSSYDVNWVRQAPGKGLEWVSLISGSGEIIYYADSVKGRFTISRDNSKNTLYLQMNSLRAEDTAVYYCAKENNRYRFFDDWGQGTLVTVSS VL: EIVLTQSPGTLSLSPGERATLSCRASQSVYTYLAWYQQKPGQAPRLLIYGASSRATGIPDRFSGSGSGTEFTLTISSLQSEDFAVYYCQQYYDRPPLTFGGGTKVEIK | 20 | 1.7 |  | 32 |  |  |
| Anti-SIRP-α antibody 136, light chain Mut, heavy chain wt (antibody, V domains shown, Whole antibody; Light chain mut = T2I, T12S, T22S, E38Q) VH: not shown VL: EIVLTQSPGTLSLSPGERATLSCRASQSVYTYLAWYQQKPGQAPRLLIYGASSRATGIPDRFSGSGSGTEFTLTISSLQSEDFAVYYCQQYYDRPPLTFGGGTKVEIK | 17 | 20 |  | 33 |  |  |
| Anti-SIRP-α antibody 136, light chain Mut_I2T, heavy chain Mut (antibody, V domains shown, Whole antibody) VH: EVQLVESGGGVVQPGRSLRLSCAASGFTFSSYDVNWVRQAPGKGLEWVSLISGSGEIIYYADSVKGRFTISRDNSKNTLYLQMNSLRAEDTAVYYCAKENNRYRFFDDWGQGTLVTVSS VL: ETVLTQSPGTLSLSPGERATLSCRASQSVYTYLAWYQQKPGQAPRLLIYGASSRATGIPDRFSGSGSGTEFTLTISSLQSEDFAVYYCQQYYDRPPLTFGGGTKVEIK | 1.8 | 40 | 3.2 | 15 |  |  |
| Anti-SIRP-α antibody 136, light chain Mut_I2T, heavy chain Mut_V34M (antibody, V domains shown, Whole antibody) VH: EVQLVESGGGVVQPGRSLRLSCAASGFTFSSYDMNWVRQAPGKGLEWVSLISGSGEIIYYADSVKGRFTISRDNSKNTLYLQMNSLRAEDTAVYYCAKENNRYRFFDDWGQGTLVTVSS VL: ETVLTQSPGTLSLSPGERATLSCRASQSVYTYLAWYQQKPGQAPRLLIYGASSRATGIPDRFSGSGSGTEFTLTISSLQSEDFAVYYCQQYYDRPPLTFGGGTKVEIK | 17 | 34 | 2.2 | 14 | 2.1 |  |
| Anti-SIRP-α antibody 136, light chain Mut_Q38E, heavy chain Mut (antibody, V domains shown, Whole antibody) VH: EVQLVESGGGVVQPGRSLRLSCAASGFTFSSYDVNWVRQAPGKGLEWVSLISGSGEIIYYADSVKGRFTISRDNSKNTLYLQMNSLRAEDTAVYYCAKENNRYRFFDDWGQGTLVTVSS VL: EIVLTQSPGTLSLSPGERATLSCRASQSVYTYLAWYQEKPGQAPRLLIYGASSRATGIPDRFSGSGSGTEFTLTISSLQSEDFAVYYCQQYYDRPPLTFGGGTKVEIK | 13 | 19 |  | 33 |  |  |
| Anti-SIRP-α antibody 136, light chain Mut_S12T, heavy chain Mut (antibody, V domains shown, Whole antibody) VH: EVQLVESGGGVVQPGRSLRLSCAASGFTFSSYDVNWVRQAPGKGLEWVSLISGSGEIIYYADSVKGRFTISRDNSKNTLYLQMNSLRAEDTAVYYCAKENNRYRFFDDWGQGTLVTVSS VL: EIVLTQSPGTLTLSPGERATLSCRASQSVYTYLAWYQQKPGQAPRLLIYGASSRATGIPDRFSGSGSGTEFTLTISSLQSEDFAVYYCQQYYDRPPLTFGGGTKVEIK | 11 | 67 |  | 16 |  |  |
| Anti-SIRP-α antibody 136, light chain Mut_S22T, heavy chain Mut (antibody, V domains shown, Whole antibody) VH: EVQLVESGGGVVQPGRSLRLSCAASGFTFSSYDVNWVRQAPGKGLEWVSLISGSGEIIYYADSVKGRFTISRDNSKNTLYLQMNSLRAEDTAVYYCAKENNRYRFFDDWGQGTLVTVSS VL: EIVLTQSPGTLSLSPGERATLTCRASQSVYTYLAWYQQKPGQAPRLLIYGASSRATGIPDRFSGSGSGTEFTLTISSLQSEDFAVYYCQQYYDRPPLTFGGGTKVEIK | 8.3 | 62 |  | 13 |  |  |
| Anti-SIRP-α antibody 136, light chain wt, heavy chain wt (antibody, V domains shown, Whole antibody) VH: not shown VL: ETVLTQSPGTLTLSPGERATLTCRASQSVYTYLAWYQEKPGQAPRLLIYGASSRATGIPDRFSGSGSGTEFTLTISSLQSEDFAVYYCQQYYDRPPLTFGGGTKVEIK | 1.6 | 24 | 4.4 | 13 |  |  |
| Anti-SIRP-α antibody 119, light chain Mut, heavy chain wt (antibody, V domains shown, Whole antibody; Light chain mut = F21L, R39K, E60A, T76S) VH: EVQLLESGGGVVQPGGSLRLSCAASGFSFSNFAMTWVRQAPGEGLEWVSTIGSGDTYYADSVKGRFTISRDNSKNTLYLQMNSLRAEDTAVYYCAKDSTVSWSGDFFDYWGLGTLVTVSS VL: EIVLTQSPATLSVSPGERATLSCRASQNVKNDLAWYQQKPGQAPRLLIYAARIRETGIPARFSGSGSGTEFTLTISSLQSEDFAVYYCQQYYDWPPFTFGGGTKVEIK | 0.086 | 0.23 |  |  | 0.14 | no binding (tested: 100 nM (highest analyte concentration)) |
| Anti-SIRP-α antibody 119, light chain wt, heavy chain Mut (antibody, V domains shown, Whole antibody; Heavy chain mut = D1E, E43K, L112Q, M34V) VH: EVQLLESGGGVVQPGGSLRLSCAASGFSFSNFAVTWVRQAPGKGLEWVSTIGSGDTYYADSVKGRFTISRDNSKNTLYLQMNSLRAEDTAVYYCAKDSTVSWSGDFFDYWGQGTLVTVSS VL: EIVLTQSPATLSVSPGERATFSCRASQNVKNDLAWYQQRPGQAPRLLIYAARIRETGIPERFSGSGSGTEFTLTITSLQSEDFAVYYCQQYYDWPPFTFGGGTKVEIK | 0.069 |  |  |  | 0.16 | no binding (tested: 100 nM (highest analyte concentration)) |
| Hum9/AB21_HC_Mutall (antibody, V domains shown, Whole antibody) VH: EVQLVESGGGVVQPGGSLRLSCAASGFTFSSNAMSWVRQAPGKGLEWVAGISAGGSDTYYPASVKGRFTISRDNSKNTLYLQMNSLRAEDTAVYYCARETWNHLFDYWGQGTLVTVSS VL: SYELTQPPSVSVSPGQTARITCSGGAYSSYYYAWYQQKPGQAPVLVIYSDDKRPSGIPERFSGSSSGTTVTLTISGVQAEDEADYYCGGYDQSSYTNPFGGGTKLTVL | 0.12 | 0.035 | 0.057 |  | 0.22 |  |
| Anti-SIRP-α antibody 135, light chain Mut, heavy chain wt (antibody, V domains shown, Whole antibody; Light chain mut = F21L, D60A) VH: DVQLVESGGGVVRPGESLRLSCAASGFSFSIYAMSWVRQAPGEGLEWVSTIGADDTYYADSVKGRFTISRDNSKNTLYLQMNSLRAEDTAVYYCAKDSTVGWSGDFFDYWGLGTLVTVSS VL: EIVLTQSPATLSVSPGERVTLSCRASQNVRSDIAWYQQKPGQAPRLLIYAASSRDTGIPARFSGSGSGTDFTLTISSLQSEDFGVYYCQQYYDWPPFTFGGGTKVEIK | 0.027 | 0.52 |  |  | 0.1 | no binding (tested: 100 nM (highest analyte concentration)) |
| Anti-SIRP-α antibody 135, light chain wt, heavy chain Mut (antibody, V domains shown, Whole antibody; Heavy chain mut = D1E, R13Q, E16G, M34V, E43K, L112Q) VH: EVQLVESGGGVVQPGGSLRLSCAASGFSFSIYAVSWVRQAPGKGLEWVSTIGADDTYYADSVKGRFTISRDNSKNTLYLQMNSLRAEDTAVYYCAKDSTVGWSGDFFDYWGQGTLVTVSS VL: EIVLTQSPATLSVSPGERVTFSCRASQNVRSDIAWYQQKPGQAPRLLIYAASSRDTGIPDRFSGSGSGTDFTLTISSLQSEDFGVYYCQQYYDWPPFTFGGGTKVEIK | 0.02 | 0.78 |  |  | 0.13 | no binding (tested: 100 nM (highest analyte concentration)) |
| Anti-SIRP-α antibody 135, light chain wt, heavy chain wt (antibody, V domains shown, Whole antibody) VH: DVQLVESGGGVVRPGESLRLSCAASGFSFSIYAMSWVRQAPGEGLEWVSTIGADDTYYADSVKGRFTISRDNSKNTLYLQMNSLRAEDTAVYYCAKDSTVGWSGDFFDYWGLGTLVTVSS VL: EIVLTQSPATLSVSPGERVTFSCRASQNVRSDIAWYQQKPGQAPRLLIYAASSRDTGIPDRFSGSGSGTDFTLTISSLQSEDFGVYYCQQYYDWPPFTFGGGTKVEIK | 0.029 | 0.54 |  |  | 0.097 | no binding (tested: 100 nM (highest analyte concentration)) |
